# The supplement of paper PMC7877785
# ± gives the uncertainty stated by the source.
# Assay: self-splicing fitness, log relative to wild type (ln ratio); higher = more splicing; Tetrahymena group I intron in knt gene, E. coli kanamycin selection, DiMSum; sequences stand for … in CUCUCU…GGAGGGAAAAGUUAUCAGGCAUGCACCUGGUAGCUAGUCUUUAAACCAAUAGAUUGCAUCGGUUUAAAAGGCAAGACCGUCAAAUUGCGGGAAAGGGGUCAACAGCCGUUCAGUACCAAGUCUCAGGGGAAACUUUGAGAUGGCCUUGCAAAGGGUAUGGUAAUAAGCUGACGGACAUGGUCCUAACCACGCAGCCAAGUCCUAAGUCAACAGAUCUUCUGUUGAUAUGGAUGCAGUUCACAGACUAAAUGUCGGUCGGGGAAGAUGUAUUCUUCUCAUAAGAUAUAGUCGGACCUCUCCUUAAUGGGAGCUAGCGGAUGAAGUGAUGCAACACUGGAGCCGCUGGGAACUAAUUUGUAUGCGAAAGUAUAUUGAUUAGUUUUGGAGUACUCGUGGUCG
# In short: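 DiMSum derived fitness as the error-weighted combination of fold changes across replicates, kanamycin versus no kanamycin, normalised to wild type. E. coli BL21(DE3) held the library, which randomised all eight P1ex-region intron nucleotides within the knt kanamycin-resistance gene on pET-22b(+). Six replicate transformations grew overnight at 37°C or 30°C on LB agar with or without 25 μg/mL kanamycin, also containing 100 μg/mL carbenicillin, 50 μM IPTG and 0.2% rhamnose, and pooled colonies were amplicon-sequenced on an Illumina HiSeq 2500.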
Sequence,self-splicing fitness (ln) (30 °C),self-splicing fitness (ln) (37 °C)
AAAUAGCAAUAUUACGGCUG,-0.833 ± 0.15,-0.0574 ± 0.18
AAAUAGCAAUAUUACGUACA,-1.23 ± 0.071,-0.523 ± 0.092
AAAUAGCAAUAUUACGUGUC,-3.4 ± 0.19,-3.29 ± 0.25
AAAUAGCAAUAUUACGUUGA,-3.3 ± 0.41,-0.771 ± 0.16
AAAUAGCAAUAUUACGUUUA,-1.85 ± 0.15,-1.03 ± 0.13
AACAAGCAAUAUUACGAACC,-1.27 ± 0.12,0.0146 ± 0.19
AACAAGCAAUAUUACGAAGG,-2.77 ± 0.19,-1.95 ± 0.24
AACAAGCAAUAUUACGAGAG,-3.79 ± 0.22,-2.24 ± 0.14
AACAAGCAAUAUUACGAGGG,-3 ± 0.11,-1.35 ± 0.15
AACAAGCAAUAUUACGAUCU,-0.25 ± 0.062,-0.072 ± 0.08
AACAAGCAAUAUUACGCACG,-1.31 ± 0.18,-0.33 ± 0.18
AACAAGCAAUAUUACGCAGG,-2.67 ± 0.11,-1.49 ± 0.098
AACAAGCAAUAUUACGCCAA,-2.32 ± 0.14,-2.55 ± 0.16
AACAAGCAAUAUUACGCCAG,-2.62 ± 0.15,-1.24 ± 0.15
AACAAGCAAUAUUACGCCCA,-0.0653 ± 0.094,-0.00342 ± 0.11
AACAAGCAAUAUUACGCCUG,-0.373 ± 0.094,-0.0232 ± 0.095
AACAAGCAAUAUUACGCCUU,-0.742 ± 0.11,-0.314 ± 0.12
AACAAGCAAUAUUACGGACG,-1.3 ± 0.061,-0.887 ± 0.086
AACAAGCAAUAUUACGGAUC,-1.6 ± 0.093,-0.302 ± 0.11
AACAAGCAAUAUUACGGCGG,-0.998 ± 0.078,-0.826 ± 0.1
AACAAGCAAUAUUACGGGCU,-1.82 ± 0.073,-1.15 ± 0.099
AACAAGCAAUAUUACGGUCA,-0.52 ± 0.043,0.199 ± 0.062
AACAAGCAAUAUUACGGUGU,-2.51 ± 0.056,-1.45 ± 0.068
AACAAGCAAUAUUACGGUUG,-2.83 ± 0.1,-1.64 ± 0.084
AACAAGCAAUAUUACGUAUG,-3.33 ± 0.12,-1.85 ± 0.1

Sequence,self-splicing fitness (ln) (30 °C),self-splicing fitness (ln) (37 °C)
AACAAGCAAUAUUACGUCGG,-2.99 ± 0.14,-1.99 ± 0.15
AACAAGCAAUAUUACGUGUA,-1.55 ± 0.046,-1.01 ± 0.054
AACAAGCAAUAUUACGUUGG,-3.76 ± 0.13,-3.31 ± 0.18
AACAAGCAAUAUUACGUUUG,-2.87 ± 0.096,-2.46 ± 0.12
AACCAGCAAUAUUACGAAUU,-0.517 ± 0.064,-0.314 ± 0.081
AACCAGCAAUAUUACGACAA,-1.14 ± 0.12,-0.155 ± 0.12
AACCAGCAAUAUUACGACGG,-2.1 ± 0.089,-0.974 ± 0.11
AACCAGCAAUAUUACGACUA,0.0905 ± 0.084,-0.0751 ± 0.079
AACCAGCAAUAUUACGAGAU,-1.96 ± 0.078,-0.239 ± 0.083
AACCAGCAAUAUUACGAGGG,-3.27 ± 0.11,-2.1 ± 0.11
AACCAGCAAUAUUACGAGUA,-1.07 ± 0.061,-0.523 ± 0.075
AACCAGCAAUAUUACGAUAG,-2.87 ± 0.16,-2.11 ± 0.15
AACCAGCAAUAUUACGCAUC,-1.98 ± 0.079,-0.531 ± 0.085
AACCAGCAAUAUUACGCGGC,-3.79 ± 0.2,-3.14 ± 0.23
AACCAGCAAUAUUACGGAAU,-2.06 ± 0.08,-0.602 ± 0.091
AACCAGCAAUAUUACGGAGA,-1.62 ± 0.086,-1.5 ± 0.084
AACCAGCAAUAUUACGGGCU,-2.19 ± 0.093,-1.71 ± 0.1
AACCAGCAAUAUUACGGUUG,-2.21 ± 0.05,-0.839 ± 0.06
AACCAGCAAUAUUACGUAAU,-1.45 ± 0.055,-0.238 ± 0.069
AACCAGCAAUAUUACGUGAU,-1.66 ± 0.04,-1.11 ± 0.05
AACCAGCAAUAUUACGUGGG,-3.94 ± 0.12,-2.57 ± 0.094
AACCAGCAAUAUUACGUGUC,-3.29 ± 0.094,-1.42 ± 0.075
AACCAGCAAUAUUACGUGUG,-1.05 ± 0.033,-0.463 ± 0.048
AACCAGCAAUAUUACGUUCA,-0.752 ± 0.06,-0.495 ± 0.065
AACCAGCAAUAUUACGUUCU,-1.15 ± 0.043,-0.678 ± 0.053

Sequence,self-splicing fitness (ln) (30 °C),self-splicing fitness (ln) (37 °C)
AACCAGCAAUAUUACGUUGU,-2.68 ± 0.077,-2.38 ± 0.1
AACGAGCAAUAUUACGAACA,-3.15 ± 0.28,-1.9 ± 0.16
AACGAGCAAUAUUACGAAGA,-3.13 ± 0.33,-1.82 ± 0.44
AACGAGCAAUAUUACGACUG,-2.12 ± 0.16,-0.348 ± 0.15
AACGAGCAAUAUUACGAGCU,-4.74 ± 0.36,-3.22 ± 0.27
AACGAGCAAUAUUACGAUAA,-3.76 ± 0.2,-2.94 ± 0.21
AACGAGCAAUAUUACGAUCA,-2.1 ± 0.21,-1.41 ± 0.21
AACGAGCAAUAUUACGAUGC,-2.93 ± 0.2,-1.52 ± 0.26
AACGAGCAAUAUUACGAUUU,-0.71 ± 0.067,-0.294 ± 0.082
AACGAGCAAUAUUACGCAAA,–,-1.9 ± 0.35
AACGAGCAAUAUUACGCGCU,-3.43 ± 0.2,-0.902 ± 0.14
AACGAGCAAUAUUACGCGGA,-2.97 ± 0.2,-2.01 ± 0.2
AACGAGCAAUAUUACGCGGC,-2.71 ± 0.33,-2.15 ± 0.33
AACGAGCAAUAUUACGCGGU,-3.29 ± 0.26,-1.62 ± 0.15
AACGAGCAAUAUUACGCUCU,-5.11 ± 0.41,-1.81 ± 0.14
AACGAGCAAUAUUACGCUGA,-1.64 ± 0.27,-2.29 ± 0.39
AACGAGCAAUAUUACGCUUG,-2.67 ± 0.17,-2.99 ± 0.29
AACGAGCAAUAUUACGGCGG,-2.67 ± 0.14,-1.13 ± 0.13
AACGAGCAAUAUUACGGCUU,-0.938 ± 0.076,-0.225 ± 0.1
AACGAGCAAUAUUACGGGAC,-3.37 ± 0.22,-3.61 ± 0.46
AACGAGCAAUAUUACGGGGU,-3.26 ± 0.35,–
AACGAGCAAUAUUACGGUAA,-4.2 ± 0.42,-2.47 ± 0.28
AACGAGCAAUAUUACGGUAG,-3.73 ± 0.15,-3.17 ± 0.18
AACGAGCAAUAUUACGGUGU,-3.36 ± 0.17,-1.81 ± 0.18
AACGAGCAAUAUUACGUAAG,-4.14 ± 0.3,-0.595 ± 0.14
